# B1: LARP4 (parent)
# chain: WTVANMEEIKKLTTDPDLILEVLR
# Variants of: B1
# Assay: protein stability index of a GFP-peptide fusion (GPS, HEK-293T) (PSI 1-6); higher = more stable
# Conditions: c terminus: a fixed tail appended
# 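Further: lentivirally expressed fusions sorted by FACS into six bins by GFP to DsRed ratio, PSI derived from sequencing read proportions per bin multiplied by bin number.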
row,Variant,protein stability index
1,WTVANMEEVKKLTTDPDLILEVLR [I9V],2.72
2,WTVANMEEWKKLTTDPDLILEVLR [I9W],2.21
3,WTVANMEEYKKLTTDPDLILEVLR [I9Y],2.31
4,WTVANMEEIAKLTTDPDLILEVLR [K10A],2.12
5,WTVANMEEICKLTTDPDLILEVLR [K10C],2.02
6,WTVANMEEIDKLTTDPDLILEVLR [K10D],2.49
7,WTVANMEEIEKLTTDPDLILEVLR [K10E],2.51
8,WTVANMEEIFKLTTDPDLILEVLR [K10F],1.93
9,WTVANMEEIGKLTTDPDLILEVLR [K10G],1.99
10,WTVANMEEIHKLTTDPDLILEVLR [K10H],1.84
11,WTVANMEEIIKLTTDPDLILEVLR [K10I],1.54
12,WTVANMEEILKLTTDPDLILEVLR [K10L],2.68
13,WTVANMEEIMKLTTDPDLILEVLR [K10M],2.56
14,WTVANMEEINKLTTDPDLILEVLR [K10N],2.13
15,WTVANMEEIPKLTTDPDLILEVLR [K10P],2
16,WTVANMEEIQKLTTDPDLILEVLR [K10Q],2.88
17,WTVANMEEIRKLTTDPDLILEVLR [K10R],2.52
18,WTVANMEEISKLTTDPDLILEVLR [K10S],2.07
19,WTVANMEEITKLTTDPDLILEVLR [K10T],1.71
20,WTVANMEEIVKLTTDPDLILEVLR [K10V],2.07
21,WTVANMEEIWKLTTDPDLILEVLR [K10W],2.68
22,WTVANMEEIYKLTTDPDLILEVLR [K10Y],2.03
23,WTVANMEEIKALTTDPDLILEVLR [K11A],1.7
24,WTVANMEEIKCLTTDPDLILEVLR [K11C],2.33

row,Variant,protein stability index
1,WTVANMEEIKDLTTDPDLILEVLR [K11D],3.96
2,WTVANMEEIKELTTDPDLILEVLR [K11E],3.99
3,WTVANMEEIKFLTTDPDLILEVLR [K11F],2.85
4,WTVANMEEIKGLTTDPDLILEVLR [K11G],2.22
5,WTVANMEEIKHLTTDPDLILEVLR [K11H],3.42
6,WTVANMEEIKILTTDPDLILEVLR [K11I],2.02
7,WTVANMEEIKLLTTDPDLILEVLR [K11L],2.13
8,WTVANMEEIKMLTTDPDLILEVLR [K11M],1.81
9,WTVANMEEIKNLTTDPDLILEVLR [K11N],2.81
10,WTVANMEEIKPLTTDPDLILEVLR [K11P],2.46
11,WTVANMEEIKQLTTDPDLILEVLR [K11Q],2.58
12,WTVANMEEIKRLTTDPDLILEVLR [K11R],2.52
13,WTVANMEEIKSLTTDPDLILEVLR [K11S],2.8
14,WTVANMEEIKTLTTDPDLILEVLR [K11T],2.95
15,WTVANMEEIKVLTTDPDLILEVLR [K11V],2.29
16,WTVANMEEIKWLTTDPDLILEVLR [K11W],2.68
17,WTVANMEEIKYLTTDPDLILEVLR [K11Y],3.77
18,WTVANMEEIKKATTDPDLILEVLR [L12A],2.17
19,WTVANMEEIKKCTTDPDLILEVLR [L12C],3.11
20,WTVANMEEIKKDTTDPDLILEVLR [L12D],3.37
21,WTVANMEEIKKETTDPDLILEVLR [L12E],3.74
22,WTVANMEEIKKFTTDPDLILEVLR [L12F],2.97
23,WTVANMEEIKKGTTDPDLILEVLR [L12G],2.6
24,WTVANMEEIKKHTTDPDLILEVLR [L12H],3.11

row,Variant,protein stability index
1,WTVANMEEIKKITTDPDLILEVLR [L12I],2.23
2,WTVANMEEIKKKTTDPDLILEVLR [L12K],2.62
3,WTVANMEEIKKMTTDPDLILEVLR [L12M],2.06
4,WTVANMEEIKKNTTDPDLILEVLR [L12N],3.08
5,WTVANMEEIKKPTTDPDLILEVLR [L12P],2.26
6,WTVANMEEIKKQTTDPDLILEVLR [L12Q],3.09
7,WTVANMEEIKKRTTDPDLILEVLR [L12R],2.34
8,WTVANMEEIKKSTTDPDLILEVLR [L12S],2.97
9,WTVANMEEIKKTTTDPDLILEVLR [L12T],2.22
10,WTVANMEEIKKVTTDPDLILEVLR [L12V],2.9
11,WTVANMEEIKKWTTDPDLILEVLR [L12W],2.46
12,WTVANMEEIKKYTTDPDLILEVLR [L12Y],2.62
13,WTVANMEEIKKLATDPDLILEVLR [T13A],2.24
14,WTVANMEEIKKLCTDPDLILEVLR [T13C],1.88
15,WTVANMEEIKKLDTDPDLILEVLR [T13D],2.56
16,WTVANMEEIKKLETDPDLILEVLR [T13E],2.24
17,WTVANMEEIKKLFTDPDLILEVLR [T13F],1.82
18,WTVANMEEIKKLGTDPDLILEVLR [T13G],2.23
19,WTVANMEEIKKLHTDPDLILEVLR [T13H],1.97
20,WTVANMEEIKKLITDPDLILEVLR [T13I],2.04
21,WTVANMEEIKKLKTDPDLILEVLR [T13K],2.02
22,WTVANMEEIKKLLTDPDLILEVLR [T13L],2.14
23,WTVANMEEIKKLMTDPDLILEVLR [T13M],1.87
24,WTVANMEEIKKLNTDPDLILEVLR [T13N],1.92

row,Variant,protein stability index
1,WTVANMEEIKKLPTDPDLILEVLR [T13P],2.24
2,WTVANMEEIKKLQTDPDLILEVLR [T13Q],1.58
3,WTVANMEEIKKLRTDPDLILEVLR [T13R],1.82
4,WTVANMEEIKKLSTDPDLILEVLR [T13S],1.39
5,WTVANMEEIKKLVTDPDLILEVLR [T13V],2.94
6,WTVANMEEIKKLWTDPDLILEVLR [T13W],1.83
7,WTVANMEEIKKLYTDPDLILEVLR [T13Y],1.86
8,WTVANMEEIKKLTADPDLILEVLR [T14A],2.08
9,WTVANMEEIKKLTCDPDLILEVLR [T14C],1.77
10,WTVANMEEIKKLTDDPDLILEVLR [T14D],2.46
11,WTVANMEEIKKLTEDPDLILEVLR [T14E],2.44
12,WTVANMEEIKKLTFDPDLILEVLR [T14F],1.39
13,WTVANMEEIKKLTGDPDLILEVLR [T14G],2.01
14,WTVANMEEIKKLTHDPDLILEVLR [T14H],3.88
15,WTVANMEEIKKLTIDPDLILEVLR [T14I],2.08
16,WTVANMEEIKKLTKDPDLILEVLR [T14K],2.21
17,WTVANMEEIKKLTLDPDLILEVLR [T14L],1.99
18,WTVANMEEIKKLTMDPDLILEVLR [T14M],2.54
19,WTVANMEEIKKLTNDPDLILEVLR [T14N],2.52
20,WTVANMEEIKKLTPDPDLILEVLR [T14P],2.01
21,WTVANMEEIKKLTQDPDLILEVLR [T14Q],2.59
22,WTVANMEEIKKLTRDPDLILEVLR [T14R],2.14
